For one molecule, Kd results are on record in publication PMC11163200, “C3d-Targeted factor H inhibits tissue complement in disease models and reduces glomerular injury without affecting circulating complement” (Molecular Therapy, 2024).

Holding throughout (settings): both partners purified
Experiment [1] concerns the target T1, recombinant C3d ( (human, cynomolgus monkey or …, UniProt P01024 1002-1303)).
T1 construct: C3d fragment of complement C3, recombinant, amine-coupled to the CM5 chip; source: recombinant
Nature of the experiment: SPR; Biacore 3000 or T200, 25°C; recombinant C3d amine-coupled on a CM5 chip at low density (10 RU); CR2-fH1–5 injected at 0–1,000 nM, 30 μL/min, 120 s association, 180 s dissociation; Langmuir 1:1 fit. In general terms: In SPR one partner is held on a chip, and binding of the other changes the refractive index at the surface.

Experiment [2] has as its target T1, recombinant C3d. Nature of the experiment: SPR; Biacore 3000 or T200, 25°C; recombinant C3d amine-coupled on a CM5 chip at high density (4,200 RU); CR2-fH1–5 injected at 0–1,000 nM, 30 μL/min; Langmuir 1:1 fit.
Experiment [3] concerns the target T1, recombinant C3d. Nature of the experiment: SPR; Biacore 3000 or T200, 25°C; recombinant C3d amine-coupled on a CM5 chip at medium-high density (2,500 RU); CR2-fH1–5 injected at 0–1,000 nM, 30 μL/min; Langmuir 1:1 fit.
The target of experiment [4] is T1, recombinant C3d. Nature of the experiment: SPR; Biacore 3000 or T200, 25°C; recombinant C3d amine-coupled on a CM5 chip at medium density (750 RU); CR2-fH1–5 injected at 0–1,000 nM, 30 μL/min; Langmuir 1:1 fit.

T1 sequence (P01024 1002-1303): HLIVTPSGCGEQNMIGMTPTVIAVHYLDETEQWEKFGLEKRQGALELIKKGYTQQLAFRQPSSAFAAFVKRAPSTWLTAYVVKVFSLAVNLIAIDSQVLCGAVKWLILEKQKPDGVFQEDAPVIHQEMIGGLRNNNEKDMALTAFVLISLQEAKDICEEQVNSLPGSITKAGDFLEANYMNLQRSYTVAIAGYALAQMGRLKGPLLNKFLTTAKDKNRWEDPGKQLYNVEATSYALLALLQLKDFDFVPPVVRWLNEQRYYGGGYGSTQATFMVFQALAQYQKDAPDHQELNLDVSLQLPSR

B1: TT30 (other)
chain: ISCGSPPPILNGRISYYSTPIAVGTVIRYSCSGTFRLIGEKSLLCITKDKVDGTWDKPAPKCEYFNKYSSCPEPIVPGGYKIRGSTPYRHGDSVTFACKTNFSMNGNKSVWCQANNMWGPTRLPTCVSVFPLECPALPMIHNGHHTSENVGSIAPGLSVTYSCESGYLLVGEKIINCLSSGKWSAVPPTCEEARCKSLGRFPNGKVKEPPILRVGVTANFFCDEGYRLQGPPSSRCVIAGQGVAWTKMPVCEEEDCNELPPRRNTEILTGSWSDQTYPEGTQAIYKCRPGYRSLGNVIMVCRKGEWVALNPLRKCQKRPCGHPGDTPFGTFTLTGGNVFEYGVKAVYTCNEGYQLLGEINYRECDTDGWTNDIPICEVVKCLPVTAPENGKIVSSAMEPDREYHFGQAVRFVCNSGYKIEGDEEMHCSDDGFWSKEKPKCVEISCKSPDVINGSPISQKIIYKENERFQYKCNMGYEYSERGDAVCTESGWRPLPSCEEKSCDNPYIPNGDYSPLRIKHRTGDEITYQCRNGFYPATRGNTAKCTSTGWIPAPRCTL
modifications: Limits are not printed. TT30 is taken as CR2 SCR1-4 (the C3d-binding end) fused directly to factor H SCR1-5, from general knowledge of TT30, with limits from the UniProt Sushi domain features. …
The term Kd denotes the free concentration of one partner at which half of the binding sites on the other are occupied at equilibrium, for simple one-to-one binding. As to B1, the dissociation constant (Kd) in experiment [1] was found to be 1.08 µM; in experiment [2] it was 1.89 µM; in experiment [3], 1.89 µM; in experiment [4] it was 1.26 µM.
